According to article PMC6853915 (Scientific Reports, 2019):

Key:
Conditions in all cases: both partners purified
[1] = target: T1, 17beta-hydroxysteroid dehydrogenase type 10 (human, UniProt Q99714 1-261); test: SPR; cypD held on immobilised Ab(cypD); 100 nM 17β-HSD10 flowed for 7 min; 10 mM HEPES, 200 μg/ml BSA, 5 mM Na+, pH 7.4 or 7.8, with K+ (up to 140 mM), Mg2+ or Ca2+ (up to 2.5 mM) alone or K+ and Mg2+ combined; 25 °C; reference channel without cypD
T1 construct: the oligomeric state was not measured; also called 17β-HSD10; 17beta-hydroxysteroide dehydrogenase 10; source: bought: Fitzgerald, USA (human, recombinant)
T1 sequence (looked up): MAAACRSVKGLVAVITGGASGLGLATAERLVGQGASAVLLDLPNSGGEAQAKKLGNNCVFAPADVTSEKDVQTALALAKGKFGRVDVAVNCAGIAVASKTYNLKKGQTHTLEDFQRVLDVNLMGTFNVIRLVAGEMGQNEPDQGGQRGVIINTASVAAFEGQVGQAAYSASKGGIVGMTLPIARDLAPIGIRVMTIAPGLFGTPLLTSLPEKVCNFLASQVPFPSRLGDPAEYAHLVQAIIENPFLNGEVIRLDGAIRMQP

amyloid-β peptide 1–40 = target: T2, amyloid-β peptide 1–40 (human, UniProt P05067 672-711); test: SPR; cypD held on immobilised Ab(cypD); 17β-HSD10 (100 nM), Aβ1–40 or Aβ1–42 (50-1000 nM, mostly 500 nM) or their mixtures, incubated at 37 °C beforehand (1 hour; or Aβ alone 0-180 min, then 10 min with 17β-HSD10), flowed for 7 or 10 min; HEPES_FINAL (10 mM HEPES, 200 μg/ml BSA, 5 mM Na+, 15 mM K+, 0.1 mM Mg2+, pH 7.4); 25 °C
T2 construct: amyloid-β peptide, residues 1-40 (40 aa), human, cut product of the amyloid precursor protein; numbers count on: the Aβ peptide; The authors take it to stay monomeric under the conditions used; also called Aβ1–40; Aβ_(1–40); source: synthetic peptide; bought: AnaSpec, USA
T2 sequence (P05067 672-711): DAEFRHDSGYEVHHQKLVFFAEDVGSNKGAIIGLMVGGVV

amyloid-β peptide 1–42 = target: T3, amyloid-β peptide 1–42 (human, UniProt P05067 672-713); test: as above
T3 construct: amyloid-β peptide, residues 1-42 (42 aa), human, cut product of the amyloid precursor protein; numbers count on: the Aβ peptide; Incubated at 37 °C before injection; the authors take it to form oligomers of a size that was not measured; also called Aβ1–42; Aβ_(1–42); source: synthetic peptide; bought: AnaSpec, USA
T3 sequence (P05067 672-713): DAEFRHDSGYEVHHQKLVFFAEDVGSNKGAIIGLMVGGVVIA

Measured: binding result

B1: cyclophilin D (enzyme)
chain: not shown
notes: cyclophilin D (cypD), human, recombinant; Held on the chip through an immobilised antibody against cypD; also called cypD; source: bought: Fitzgerald, USA (human, recombinant)
binds: [1] | amyloid-β peptide 1–40 | amyloid-β peptide 1–42
